Laboratory results as given in US20210355235A1, “Compositions and Methods For Treating Cancer with Anti-Renalase antibodies and Anti-PD1 antibodies” (YALE UNIVERSITY, priority 2017, published 2021).
Entries after “also recorded” stand apart in the source; their conditions may differ.

How the values were obtained:
[1] = tested on: A375.S2 xenograft tumors; type: in vivo
Procedure: Briefly, tumor tissues were formalin-fixed, paraffin-embedded and cut into 5-m sections on glass slides. The slides were de-paraffinized and hydrated, followed by antigen retrieval in a pressure cooker containing 10 mM sodium citrate, pH6 buffer. The sections were blocked in 3% hydrogen peroxide for 30 min and 2.5% normal horse serum in PBS/0.1% Tween20 for 1 h followed by incubation with primary antibody and isotype control IgG overnight at 4° C. The following antibodies were used in this study: m28-RNLS at 500 ng/ml; goat polyclonal anti-RNLS at 250 ng/ml (Abcam, ab31291); rabbit monoclonal anti-CD68 (BDBioscience, 1:100); rabbit monoclonal anti-CD163 (AbD Serotec, 1:100); rabbit monoclonal anti-CD86 (Abcam, 1:100); rabbit monoclonal anti-Ki67 (Vector Lab, VP-RM04, 1:100); rabbit monoclonal anti-p21, […], and total Stat3 (Cell Signaling Technologies, #2947, 1:100, #9145, 1:400, and #4904, 1:400, respectively). ImmPRESS peroxidase-anti-rabbit IgG (Vector Laboratories, Burlingame, Calif., USA) was used to detect primary antibodies. […] Slides were observed and photographed using an Olympus BX41 microscope and camera (Olympus America Inc, Center Valley, Pa., USA).
(§1) Female athymic, 18-20 g nude mice (nu/nu) were obtained from Charles River (Willimantic, Conn.) and housed in microisolator cages, with autoclaved bedding in a specific pathogen-free facility, with a 12-h light/dark cycle.
Xenograft tumors were established by subcutaneous injection of A375.S2 cells (2×10^6 in 100 μl of PBS, pH 7.6). When the tumors reached a volume of 50-100 mm^3, the mice were divided into a control group (n=14 treated with rabbit IgG, 40 μg by intraperitoneal injection (IP) once weekly, and 40 ug subcutaneously (SQ) around the tumor site every 3 days), and an experimental group (n=14) that received m28-RNLS (40 μg IP, once weekly, and 40 ug SQ, every 3 days). Tumor size was measured with digital calipers and volume was calculated according to the formula (length×width^2)×π/2.
(§2) At the end of the study, the mice were sacrificed, the tumors were excised and immediately snap-frozen in liquid nitrogen and stored at −80° C. Apoptosis was examined using the TUNEL assay (Roche in situ Apoptosis Detection System), according to the manufacturer's instructions. Sections were examined by light microscopy and the apoptosis index was determined by counting ≥1000 cells in 10 randomly selected high-power fields (×200 magnification).

[2] = tested on: BxPC3 xenografted tumors; experiment: BxPC3 pancreatic xenograft in athymic nude mice; type: in vivo, mouse
Procedure: Immunohistochemistry was performed as described previously (Guo et al., 2012 Cancer Science. 103(8):1474-80). Briefly tumor tissues were formalin-fixed, paraffin-embedded and cut into 5-m sections on glass slides. The slides were de-paraffinized and hydrated, followed by antigen retrieval in a pressure cooker containing 10 mM sodium citrate, pH6 buffer. The sections were blocked in 3% hydrogen peroxide for 30 min and 2.5% normal horse serum in PBS/0.1% Tween20 for 1 h followed by incubation with primary antibody and isotype control IgG overnight at 4° C. The following antibodies were used in this study: m28-RNLS at 500 ng/ml; goat polyclonal anti-RNLS at 250 ng/ml (Abcam, AB31291); rabbit monoclonal anti Ki67 (Vector Lab, VP-RM04, 1:100); rabbit monoclonal anti p21 and phspho-Tyr^705-Stat3 (Cell Signaling Technologies, #2947, 1:100 and #9145, 1:400, respectively). ImmPRESS peroxidase-anti-rabbit IgG (Vector Laboratories, Burlingame, Calif., USA) was used to detect primary antibodies. The color was developed using a Vector DAB substrate kit and counterstained with hematoxylin (Vector Laboratories). Slides were observed and photographed using an Olympus BX41 microscope and camera (Olympus America Inc, Center Valley, Pa., USA).
as §1
Xenograft tumors were established by subcutaneous injection of BxPC3 cells (2×10^6 in 100 μl of PBS, pH 7.6). When the tumors reached a volume of 50-100 mm^3, the mice were divided a control group (n=14 treated with rabbit IgG, 40 μg by intraperitoneal injection (IP)), and an experimental group (n=14) that received m28-RNLS (40 μg IP, every 3 days). Tumor size was measured with digital calipers and volume was calculated according to the formula (length×width^2)×π/2. In another group of animals (n=6 each) sh-RNLS or sh-Control Panc1 cells (2×10^6 in 100 μl of PBS, pH 7.6) were injected subcutaneously. These animals received no further treatments, and tumor size and volume were measured for up to 30 days.
as §2, with “in 5” for “in 10”

[3] = tested on: PDACC (pancreatic ductal adenocarcinoma cells); experiment: PDACC viability with anti-RNLS antibodies, WST-1; type: cell-based, human; conditions: 72 hrs
Procedure: FIG. 25, comprising FIGS. 25A through 25E, is a series of charts and images showing that inhibition of RNLS signaling is cytotoxic to cancer cells in vitro and in vivo. FIG. 25A is a chart showing relative cell viability following transient transfection of Panc1 cells using a RNLS-specific siRNA, or a non-specific control siRNA, and cell viability assayed 96 h later using the WST-1 reagent; n=6, ** indicates p<0.001. FIG. 25B is a chart showing relative cell viability when cells were treated with indicated antibodies for 72 hrs and cell viability determined using WST-1; m28-RNLS and m37-RNLS: monoclonal antibodies raised against RNLS peptide RP220, ab31291: Abcam polyclonal antibody raised against a partial sequence of RP-220; n=6, * indicates p<0.005. […] FIG. 25D is a chart showing tumor volume increase after athymic nude mice received subcutaneous injection of Panc1 cells transduced with RNLS shRNA (sh-RNLS) or control (sh-Control); tumor volume measured every […] for up to 30 days, n=6 each; * indicates p<0.05. FIG. 25E is chart showing tumor volume increase after nude mice were xenografted with BxPC3; tumor volume measured prior to treatment every 3-4 days with 2 mg/kg of either rabbit IgG as a negative control or with m28-RNLS, n=10, * indicates p<0.05.
Cell viability was assessed by trypan blue exclusion, and cells were counted using a BioRad TC10 automated counter.

[4] = immunofluorescence / western blot

B1: m28-RNLS: rabbit anti-renalase monoclonal raised against RNLS peptide RP-220; heavy chain SEQ ID NO:9, light chain SEQ ID NO:10 (antibody)
heavy: METGLRWLLLVAVLKGVQCQSVEESGGRLVTPGTPLTLTCTVSGFSLSSFAVGWVRQAPGKGLEYIGIISSVGITRYASWAAGRFTISKTSTTVDLKITSPTTEDTATYFCARYGYSGDVNRLDLWGQGTLVTVSSGQPKAPSVFPLAPCCGDTPSSTVTLGCLVKGYLPEPVTVTWNSGTLTNGVRTFPSVRQSSGLYSLSSVVSVTSSSQPVTCNVAHPATNTKVDKTVAPSTCSKPTCPPPELLGGPSVFIFPPKPKDTLMISRTPEVTCVVVDVSQDDPEVQFTWYINNEQVRTARPPLREQQFNSTIRVVSTLPIAHQDWLRGKEFKCKVHNKALPAPIEKTISKARGQPLEPKVYTMGPPREELSSRSVSLTCMINGFYPSDISVEWEKNGKAEDNYKTTPAVLDSDGSYFLYSKLSVPTSEWQRGDVFTCSVMHEALHNHYTQKSISRSPGK
light: MDTRAPTQLLGLLLLWLPGATFAQVLTQTASPVSAAVGGTVTINCQASQSVYDNNNLAWYQQKPGQPPKQLIYGASTLASGVSSRFKGSGSGTQFTLTISGVQCDDAATYYCLGEFSCSSADCFAFGGGTEVVVKGDPVAPTVLIFPPSADLVATGTVTIVCVANKYFPDVTVTWEVDGTTQTTGIENSKTPQNSADCTYNLSSTLTLTSTQYNSHKEYTCKVTQGTTSVVQSFNRGDC
modifications: 1D-28-4 full length heavy chain amino acid; 1D-28-4 full length light chain amino acid
[1]; immunofluorescence
  number of CD163+ TAMs: considerable decrease; also recorded: decreases
[1]; [4]
  RNLS protein expression in tumors: dramatic reduction; also recorded: decreases; also recorded: marked reduction
  total and phosphorylated STAT3 (p-Y705-STAT3) in tumors: significantly decreased; also recorded: marked reduction
[1]; mouse, in vivo
  ratio of CD86+ to CD163+ TAMs: increases
[1]; n=14, control 4.3±0.2
  TUNEL positive cells (apoptosis): 13.3±0.6 positive cells
[1]; n=14, control 12.2±1.0
  p21 positive cells (cell cycle regulator, IHC): 24.2±2.4 positive cells
[1]; n=14, control 35.1±2.3
  Ki67 positive cells (cellular proliferation marker, IHC): 13.4±3.0 positive cells/high power field
[1]; qPCR, human specific primers
  human (tumor) RNLS expression in tumor mass: without affecting
[1]; qPCR, mouse specific primers
  mouse (endogenous) RNLS expression in tumor mass: significant reduction
[1]; throughout the study
  toxicity (overall animal health and activity): did not appear to be toxic
[1]; vs control rabbit IgG, 40 μg IP weekly and 40 ug SQ every 3 days
  tumor volume: decreased tumor volume at all points tested
[2]; mouse, in vivo
  decrease in Ki67 expression vs IgG: 2.5 fold
  increase in apoptosis (TUNEL staining) vs IgG: ~2 fold
  increase in p21 expression vs IgG: ~4 fold
[2]; n=14
  p21 positive cells: 178.1 ± 11.4 positive cells/high power field
[2]; n=14, IgG 14.8±2.3
  TUNEL positive cells (apoptosis): 28.4±3.3 positive cells/high power field
[2]; n=14, IgG 340.2±11.9
  Ki67 positive cells: 137.1±14.9 positive cells/high power field
[2]; vs rabbit IgG, up to 3 weeks, 40 μg IP every 3 days
  tumor volume: inhibited PDAC growth; also recorded: significant decrease in tumor volume
[3]
  PDACC growth / viability: inhibitory effects
